Test results from paper PMC4156074, “Inhibition of Plasma Kallikrein by a Highly Specific Active Site Blocking Antibody” (The Journal of Biological Chemistry, 2014).

How the values were obtained:
Settings in all cases: both partners purified
[1] = molecular target: T1, Full-length human plasma kallikrein, activated form (human, UniProt P03952 20-390; P03952 391-638); test: SPR; BIAcore 3000, 25 °C, HBS-P; 2-chain HMWK amine-coupled on CM5 (~2000 RU); varying pKal flowed 5 min at 20 ul/min; equilibrium RU fit to Equation 3
T1 construct: also called pKal; active pKal; source: bought: Enzyme Research Laboratories
T1 sequence (P03952 20-390, chain 1 of 2): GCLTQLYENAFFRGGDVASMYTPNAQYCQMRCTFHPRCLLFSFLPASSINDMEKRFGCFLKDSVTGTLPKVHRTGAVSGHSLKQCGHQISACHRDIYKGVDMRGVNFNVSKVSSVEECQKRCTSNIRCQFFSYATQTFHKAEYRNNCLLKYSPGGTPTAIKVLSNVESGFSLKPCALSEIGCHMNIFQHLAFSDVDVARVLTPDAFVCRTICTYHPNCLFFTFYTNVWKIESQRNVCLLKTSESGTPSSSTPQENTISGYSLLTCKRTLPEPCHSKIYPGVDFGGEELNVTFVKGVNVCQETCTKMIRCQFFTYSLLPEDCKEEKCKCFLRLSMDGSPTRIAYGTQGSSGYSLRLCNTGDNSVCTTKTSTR
T1 sequence (P03952 391-638, chain 2 of 2): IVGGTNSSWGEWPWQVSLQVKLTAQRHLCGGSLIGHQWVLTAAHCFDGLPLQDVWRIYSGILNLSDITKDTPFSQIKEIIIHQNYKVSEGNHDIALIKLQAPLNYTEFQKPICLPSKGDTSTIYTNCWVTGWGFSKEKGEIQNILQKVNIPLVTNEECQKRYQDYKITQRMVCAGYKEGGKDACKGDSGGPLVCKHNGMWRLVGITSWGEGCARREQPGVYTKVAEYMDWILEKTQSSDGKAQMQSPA

[2] = molecular target: T2, Full-length human plasma kallikrein, activated form (human, UniProt P03952); test: enzyme inhibition (steady state, tight-binding fit); purified Fab fragments on full-length pKal, potency studies like those of Fig. 2A; apparent
T2 construct: also called pKal; active pKal; source: bought: Enzyme Research Laboratories
T2 sequence (P03952 20-390, chain 1 of 2): as the sequence (P03952 20-390, chain 1 of 2) above
T2 sequence (P03952 391-638, chain 2 of 2): as the sequence (P03952 391-638, chain 2 of 2) above

[3] = molecular target: T3, pKal complexed with 2-chain HMWK (Homo sapiens, UniProt P03952;P01042); test: enzyme inhibition (steady state, tight-binding fit); DX-2930 IgG (up to 10 nM, 1.5-fold dilutions) incubated 1 h at 30 °C with 1 nM pKal, free or preincubated with 600 nM 2-chain HMWK, in 20 mM Tris-HCl pH 7.5, 150 mM NaCl, 1 mM EDTA, 0.1% PEG-8000, 0.1% Triton X-100; substrate H-Pro-Phe-Arg-AMC at 10, 50 or 100 uM; Ki from Ki app by Equation 2, averaged
T3 construct: heavy chain of 2-chain HMWK, as in m6; light chain of 2-chain HMWK, as in m6; also called pKal·HMWK complex; source: bought proteins (Enzyme Research Laboratories); pKal preincubated with 600 nM (or 4.7 uM) HMWK; copies: + + +
T3 sequence (P03952 20-390, looked up, one chain of several): as the sequence (P03952 20-390, chain 1 of 2) above

[4] = molecular target: T4, Full-length human plasma prekallikrein (Homo sapiens, UniProt P03952); test: SPR; BIAcore 3000, 25 °C, HBS-P (10 mM HEPES pH 7.4, 150 mM NaCl, 0.005% P20); DX-2930 captured on goat anti-human Fc IgG on CM5; 500 nM prekallikrein, pKal or pKal-AEBSF injected 5 min at 20 ul/min, 5 min dissociation
T4 construct: human plasma prekallikrein, single-chain zymogen; also called zymogen; source: bought: Enzyme Research Laboratories

[5] = molecular target: T5, pKal from rabbit plasma (Oryctolagus cuniculus, UniProt G1T127); test: enzyme inhibition (steady state, tight-binding fit); DX-2930 on purified pKal of mouse, rat, rabbit and cynomolgus monkey; apparent; data not shown
T5 construct: also called rabbit pKal; source: purified from rabbit plasma by Athens Research and Technology

[6] = molecular target: T6, purified pKal from mouse (Mus musculus, UniProt P26262); test: as above
T6 construct: also called mouse pKal
T6 sequence (P26262 20-638): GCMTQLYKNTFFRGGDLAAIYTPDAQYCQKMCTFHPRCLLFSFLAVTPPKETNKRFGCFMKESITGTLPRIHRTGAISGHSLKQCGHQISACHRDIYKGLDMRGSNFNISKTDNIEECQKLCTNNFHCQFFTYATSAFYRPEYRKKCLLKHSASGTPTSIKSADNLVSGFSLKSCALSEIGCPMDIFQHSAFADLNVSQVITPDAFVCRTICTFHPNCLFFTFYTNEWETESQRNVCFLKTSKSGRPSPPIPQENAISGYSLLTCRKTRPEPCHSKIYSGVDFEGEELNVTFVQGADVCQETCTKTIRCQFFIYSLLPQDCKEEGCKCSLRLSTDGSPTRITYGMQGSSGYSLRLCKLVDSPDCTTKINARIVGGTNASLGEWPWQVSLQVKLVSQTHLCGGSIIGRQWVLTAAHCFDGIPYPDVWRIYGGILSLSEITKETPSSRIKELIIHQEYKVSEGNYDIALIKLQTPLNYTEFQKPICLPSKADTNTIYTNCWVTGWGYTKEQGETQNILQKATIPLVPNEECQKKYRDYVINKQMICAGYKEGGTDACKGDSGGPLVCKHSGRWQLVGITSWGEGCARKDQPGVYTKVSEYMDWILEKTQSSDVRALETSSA

[7] = molecular target: T7, pKal from rat plasma (Rattus norvegicus, UniProt P14272); test: as above
T7 construct: also called rat pKal; source: purified from rat plasma by Athens Research and Technology
T7 sequence (P14272 20-638): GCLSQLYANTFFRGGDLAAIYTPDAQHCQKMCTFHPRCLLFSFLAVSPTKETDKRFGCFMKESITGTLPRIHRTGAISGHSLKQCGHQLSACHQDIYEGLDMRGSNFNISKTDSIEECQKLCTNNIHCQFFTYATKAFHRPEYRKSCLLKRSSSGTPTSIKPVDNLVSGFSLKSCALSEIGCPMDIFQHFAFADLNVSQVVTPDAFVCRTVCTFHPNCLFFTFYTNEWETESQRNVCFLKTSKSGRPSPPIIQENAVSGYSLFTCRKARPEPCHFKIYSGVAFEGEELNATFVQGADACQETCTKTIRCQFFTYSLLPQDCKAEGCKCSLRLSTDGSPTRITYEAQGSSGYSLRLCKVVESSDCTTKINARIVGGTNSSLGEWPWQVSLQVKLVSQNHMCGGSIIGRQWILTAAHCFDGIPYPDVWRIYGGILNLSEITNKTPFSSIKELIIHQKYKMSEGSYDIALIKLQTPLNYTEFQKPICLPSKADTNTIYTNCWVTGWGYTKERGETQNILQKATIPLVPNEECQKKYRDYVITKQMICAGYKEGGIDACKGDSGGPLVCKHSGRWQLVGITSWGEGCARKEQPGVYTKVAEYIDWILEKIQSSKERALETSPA

[8] = molecular target: T7, pKal from rat plasma; test: enzyme inhibition (steady state, tight-binding fit); purified Fab fragments on full-length pKal, potency studies like those of Fig. 2A; apparent

B1: 2-chain high molecular weight kininogen (treated with pKal to excise bradykinin) (natural protein, human)
chain 1: QESQSEEIDCNDKDLFKAVDAALKKYNSQNQSNNQFVLYRITEATKTVGSDTFYSFKYEIKEGDCPVQSGKTWQDCEYKDAAKAATGECTATVGKRSSTKFSVATQTCQITPAEGPVVTAQYDCLGCVHPISTQSPDLEPILRHGIQYFNNNTQHSSLFMLNEVKRAQRQVVAGLNFRITYSIVQTNCSKENFLFLTPDCKSLWNGDTGECTDNAYIDIQLRIASFSQNCDIYPGKDFVQPPTKICVGCPRDIPTNSPELEETLTHTITKLNAENNATFYFKIDNVKKARVQVVAGKKYFIDFVARETTCSKESNEELTESCETKKLGQSLDCNAEVYVVPWEKKIYPTVNCQPLGMISLMK
chain 2: SSRIGEIKEETTVSPPHTSMAPAQDEERDSGKEQGHTRRHDWGHEKQRKHNLGHGHKHERDQGHGHQRGHGLGHGHEQQHGLGHGHKFKLDDDLEHQGGHVLDHGHKHKHGHGHGKHKNKGKKNGKHNGWKTEHLASSSEDSTTPSAQTQEKTEGPTPIPSLAKPGVTVTFSDFQDSDLIATMMPPISPAPIQSDDDWIPDIQIDPNGLSFNPISDFPDTTSPKCPGRPWKSVSEINPTTQMKESYYFDLTDGLS
notes: heavy chain of human high molecular weight kininogen after excision of bradykinin; light chain of human high molecular weight kininogen after excision of bradykinin; also called 2-chain HMWK; 2-chain kininogen; source: bought: Enzyme Research Laboratories
Kd [1]: 72000 pM

B2: Fab M0201-H06 (Fab, V domains shown)
VH: EVQLLESGGGLVQPGGSLRLSCAASGFTFSHYIMMWVRQAPGKGLEWVSGIYSSGGITVYADSVKGRFTISRDNSKNTLYLQMNSLRAEDTAVYYCAYRRTGVPRRDAFDIWGQGTMVTVSS
VL: DIQMTQSPSTLSASVGDRVTITCRASQSISSWLAWYQQKPGKAPNLLIYKASTLESGVPSRFSGSGSGTEFTLTISSLQPDDFATYYCQQYNTYWTFGQGTKVEIK
notes: M0162-A04 with I103V alone in HV-CDR3; against the heavy chain of m2 it keeps T101 and A108; as the light chain of m2, germ line optimisation aside; source: E. coli, secreted, purified (protein A-Sepharose)
Ki [2]: 560 pM

B3: DX-2930, fully human IgG1 monoclonal antibody (antibody, V domains shown)
VH: EVQLLESGGGLVQPGGSLRLSCAASGFTFSHYIMMWVRQAPGKGLEWVSGIYSSGGITVYADSVKGRFTISRDNSKNTLYLQMNSLRAEDTAVYYCAYRRIGVPRRDEFDIWGQGTMVTVSS
VL: DIQMTQSPSTLSASVGDRVTITCRASQSISSWLAWYQQKPGKAPKLLIYKASTLESGVPSRFSGSGSGTEFTLTISSLQPDDFATYYCQQYNTYWTFGQGTKVEIK
notes: the Fab portion of the heavy chain is in the deposited structures (as the heavy chain of m2); the rest is the human IgG1 constant region (f-allotype); as the light chain of m2 in the deposited structures; IgG1 (f-allotype); Biotinylated for the ELISA on HUVEC; also called germ line-optimized M0199-A08; copies: 2 + 2
Ki [3]: 115 ± 3 pM | binding result [4]: no binding (tested: 500 nM) | Ki [5]: 14200 pM | Ki [6]: 170 pM | Ki [7]: 170 pM

B4: isolate M0199-A08 (Fab, V domains shown)
VH: EVQLLESGGGLVQPGGSLRLSCAASGFTFSHYIMMWVRQAPGKGLEWVSGIYSSGGITVYADSVKGRFTISRDNSKNTLYLQMNSLRAEDTAVYYCAYRRIGVPRRDEFDIWGQGTMVTVSS
VL: DIQMTQSPSTLSASVGDRVTITCRASQSISSWLAWYQQKPGKAPNLLIYKASTLESGVPSRFSGSGSGTEFTLTISSLQPDDFATYYCQQYNTYWTFGQGTKVEIK
notes: M0162-A04 with T101I, I103V and A108E in HV-CDR3; as the heavy chain of m2 before germ line optimisation; as the light chain of m2 before germ line optimisation; also called M0199-A08 variant; source: E. coli, secreted, purified (protein A-Sepharose)
Ki [2]: 50 pM

B5: Fab M0162-A04 (lead Fab, parent of the affinity maturation) (Fab, V domains shown)
VH: EVQLLESGGGLVQPGGSLRLSCAASGFTFSHYIMMWVRQAPGKGLEWVSGIYSSGGITVYADSVKGRFTISRDNSKNTLYLQMNSLRAEDTAVYYCAYRRTGIPRRDAFDIWGQGTMVTVSS
VL: DIQMTQSPSTLSASVGDRVTITCRASQSISSWLAWYQQKPGKAPNLLIYKASTLESGVPSRFSGSGSGTEFTLTISSLQPDDFATYYCQQYNTYWTFGQGTKVEIK
notes: as the heavy chain of m2 but with the parental HV-CDR3 residues T101, I103, A108; as the light chain of m2, germ line optimisation aside; source: E. coli, secreted, purified (protein A-Sepharose)
Ki [2]: ~5000 pM | Ki [8]: ~5000 pM
